Experimental data from US20220024991A1 (GENOME PROTECTION, published 2022).

Biological target: human TLR5 (293-hTLR5-LacZ reporter cells) (human, UniProt O60602 21-858)
Test: cell-based or functional assay

Chain of human TLR5 (293-hTLR5-LacZ reporter cells) (O60602 21-858): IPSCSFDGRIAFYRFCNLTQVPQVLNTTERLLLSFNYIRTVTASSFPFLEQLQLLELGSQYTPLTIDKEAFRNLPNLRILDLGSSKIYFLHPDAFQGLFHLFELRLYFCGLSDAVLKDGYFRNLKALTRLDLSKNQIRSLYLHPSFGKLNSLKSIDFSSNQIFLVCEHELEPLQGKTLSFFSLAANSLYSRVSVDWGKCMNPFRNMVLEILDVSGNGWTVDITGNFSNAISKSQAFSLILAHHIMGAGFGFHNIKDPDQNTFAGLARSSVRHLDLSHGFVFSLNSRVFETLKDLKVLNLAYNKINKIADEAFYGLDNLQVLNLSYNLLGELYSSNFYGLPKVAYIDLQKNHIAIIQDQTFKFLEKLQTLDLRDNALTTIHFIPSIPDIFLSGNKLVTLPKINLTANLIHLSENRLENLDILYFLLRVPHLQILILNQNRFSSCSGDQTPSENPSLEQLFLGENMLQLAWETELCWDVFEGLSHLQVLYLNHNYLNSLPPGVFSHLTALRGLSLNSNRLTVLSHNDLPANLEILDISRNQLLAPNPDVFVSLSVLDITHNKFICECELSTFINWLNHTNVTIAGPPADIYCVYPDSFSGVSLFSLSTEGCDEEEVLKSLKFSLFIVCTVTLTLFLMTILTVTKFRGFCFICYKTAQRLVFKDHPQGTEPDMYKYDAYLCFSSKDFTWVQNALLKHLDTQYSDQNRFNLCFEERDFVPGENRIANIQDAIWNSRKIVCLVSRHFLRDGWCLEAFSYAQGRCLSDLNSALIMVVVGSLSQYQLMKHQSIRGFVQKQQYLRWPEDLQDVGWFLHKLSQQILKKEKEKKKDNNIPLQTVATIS

B1: entolimod/CBLB502 (ligand)
chain: not shown
For B1, the “EC50, ng/ml (NF-κB reporter enzyme activity)” value was 0.032 ng/mL and the “EC50, pM (NF-κB reporter enzyme activity)” value was 0.92 pM.
